Values joined by “and” are separate entries in the source; they are usually repeats but may differ in a detail not shown here. Equal entries are not always repeated.

Data on five molecules can be found in article PMC9247503, “Oligomerization and Spatial Distribution of Kvβ1.1 and Kvβ2.1 Regulatory Subunits” (Frontiers in Physiology, 2022).

B5: Kvβ1.1YFP (natural protein, mouse (from the prefix m in mKvβ1.1), UniProt P63143 1-401, looked up)
chain: MQVSIACTEHNLKSRNGEDRLLSKQSSNAPNVVNAARAKFRTVAIIARSLGTFTPQHHISLKESTAKQTGMKYRNLGKSGLRVSCLGLGTWVTFGGQISDEVAERLMTIAYESGVNLFDTAEVYAAGKAEVILGSIIKKKGWRRSSLVITTKLYWGGKAETERGLSRKHIIEGLKGSLQRLQLEYVDVVFANRPDSNTPMEEIVRAMTHVINQGMAMYWGTSRWSAMEIMEAYSVARQFNMIPPVCEQAEYHLFQREKVEVQLPELYHKIGVGAMTWSPLACGIISGKYGNGVPESSRASLKCYQWLKERIVSEEGRKQQNKLKDLSPIAERLGCTLPQLAVAWCLRNEGVSSVLLGSSTPEQLIENLGAIQVLPKMTSHVVNEIDNILRNKPYSKKDYRS
notes: voltage-gated potassium channel regulatory subunit Kvβ1.1 (splice form 1.1 of Kvβ1), mouse by the prefix m in mKvβ1.1; also called mKvβ1.1 in pEYFP-N1; source: HEK-293, transfected; in cells or membrane sheets (FRET) and in lysate (semidenaturing gel)

Series [1] deals with T1, Kvβ2.1YFP (mouse (from the prefix m in mKvβ2.1)), P62482.
T1 chain: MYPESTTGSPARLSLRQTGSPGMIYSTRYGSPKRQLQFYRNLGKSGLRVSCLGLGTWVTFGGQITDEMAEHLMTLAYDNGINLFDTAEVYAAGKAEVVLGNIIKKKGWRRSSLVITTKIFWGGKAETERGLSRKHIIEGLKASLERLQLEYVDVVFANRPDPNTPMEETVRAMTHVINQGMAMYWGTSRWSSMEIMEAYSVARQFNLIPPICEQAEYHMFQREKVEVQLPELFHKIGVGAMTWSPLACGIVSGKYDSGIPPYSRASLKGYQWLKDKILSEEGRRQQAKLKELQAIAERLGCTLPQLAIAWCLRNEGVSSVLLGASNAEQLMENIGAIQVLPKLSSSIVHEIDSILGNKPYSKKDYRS
Description: semidenaturing SDS-PAGE with immunoblot; total lysates of transfected HEK-293 cells, not boiled, 8% SDS-PAGE, immunoblot with anti-GFP antibody. Conditions: remark: other sources report otherwise. Background: A western blot detects proteins with antibodies after separation by electrophoresis.

The target in series [2] is T2, Kvβ2.1CFP (mouse (from the prefix m in mKvβ2.1)), P62482.
T2 chain: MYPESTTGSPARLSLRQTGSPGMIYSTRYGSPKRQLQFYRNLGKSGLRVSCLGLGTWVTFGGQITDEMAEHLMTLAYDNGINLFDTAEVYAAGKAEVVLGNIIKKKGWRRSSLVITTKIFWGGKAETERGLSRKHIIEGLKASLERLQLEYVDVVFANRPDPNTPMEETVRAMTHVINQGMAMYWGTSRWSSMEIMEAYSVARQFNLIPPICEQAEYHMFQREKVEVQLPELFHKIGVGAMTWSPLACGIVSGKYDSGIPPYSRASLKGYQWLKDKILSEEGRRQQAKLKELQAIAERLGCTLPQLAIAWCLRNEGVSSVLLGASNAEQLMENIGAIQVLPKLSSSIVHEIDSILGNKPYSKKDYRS
Description: FRET or BRET; linear unmixing FRET (lux-FRET) on suspensions of living HEK-293 cells in PBS at 37°C, different donor molar ratios; fit of apparent EfD and EfA against xD gives E and n (units per complex). Conditions: remark: other sources report otherwise. For orientation: In BRET a luciferase serves as donor, and the signal depends on an acceptor being close.

The series “Kvβ1.1YFP” addresses B5. Described as above. The note with it: partners not purified.
For the next series, the target named is T3, Kvβ1.1CFP (mouse (from the prefix m in mKvβ1.1), UniProt P63143 1-401).
T3 construct: voltage-gated potassium channel regulatory subunit Kvβ1.1 (splice form 1.1 of Kvβ1), mouse by the prefix m in mKvβ1.1; also called mKvβ1.1 in pECFP-N1; Kvb1.1CFP; source: HEK-293, transfected; in lysate (co-IP) and in cells or membrane sheets (FRET)
T3 sequence (looked up): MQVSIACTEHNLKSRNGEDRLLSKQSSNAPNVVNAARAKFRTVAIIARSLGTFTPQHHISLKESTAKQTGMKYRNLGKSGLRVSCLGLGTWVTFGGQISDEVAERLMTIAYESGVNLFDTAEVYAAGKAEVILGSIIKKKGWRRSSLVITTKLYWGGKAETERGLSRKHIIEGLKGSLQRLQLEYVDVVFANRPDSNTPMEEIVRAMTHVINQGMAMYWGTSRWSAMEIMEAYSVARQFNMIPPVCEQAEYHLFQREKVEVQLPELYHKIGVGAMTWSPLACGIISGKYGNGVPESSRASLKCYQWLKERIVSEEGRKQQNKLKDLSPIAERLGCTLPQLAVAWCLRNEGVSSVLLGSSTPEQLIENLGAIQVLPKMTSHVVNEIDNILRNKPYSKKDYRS
Described as above. The note with it: partners not purified.

Series [3] deals with the molecule itself. Description: semidenaturing SDS-PAGE with immunoblot; total lysates of transfected HEK-293 cells, not boiled, 8% SDS-PAGE, immunoblot with anti-GFP antibody.

B1: Kvβ2.1YFP, P62482 1-367 (natural protein)
chain: MYPESTTGSPARLSLRQTGSPGMIYSTRYGSPKRQLQFYRNLGKSGLRVSCLGLGTWVTFGGQITDEMAEHLMTLAYDNGINLFDTAEVYAAGKAEVVLGNIIKKKGWRRSSLVITTKIFWGGKAETERGLSRKHIIEGLKASLERLQLEYVDVVFANRPDPNTPMEETVRAMTHVINQGMAMYWGTSRWSSMEIMEAYSVARQFNLIPPICEQAEYHMFQREKVEVQLPELFHKIGVGAMTWSPLACGIVSGKYDSGIPPYSRASLKGYQWLKDKILSEEGRRQQAKLKELQAIAERLGCTLPQLAIAWCLRNEGVSSVLLGASNAEQLMENIGAIQVLPKLSSSIVHEIDSILGNKPYSKKDYRS
As usually defined, the stoichiometry N is a count of units in the complex or per binding partner. As for B1, the stoichiometry N in series [1] was 2 and 4; in series [2], 2.09. In series [2], the FRET efficiency (E) was 22.3%.

B2: Kvβ2.1CFP (natural protein, mouse (from the prefix m in mKvβ2.1), UniProt P62482 1-367, looked up)
chain: MYPESTTGSPARLSLRQTGSPGMIYSTRYGSPKRQLQFYRNLGKSGLRVSCLGLGTWVTFGGQITDEMAEHLMTLAYDNGINLFDTAEVYAAGKAEVVLGNIIKKKGWRRSSLVITTKIFWGGKAETERGLSRKHIIEGLKASLERLQLEYVDVVFANRPDPNTPMEETVRAMTHVINQGMAMYWGTSRWSSMEIMEAYSVARQFNLIPPICEQAEYHMFQREKVEVQLPELFHKIGVGAMTWSPLACGIVSGKYDSGIPPYSRASLKGYQWLKDKILSEEGRRQQAKLKELQAIAERLGCTLPQLAIAWCLRNEGVSSVLLGASNAEQLMENIGAIQVLPKLSSSIVHEIDSILGNKPYSKKDYRS
notes: voltage-gated potassium channel regulatory subunit Kvβ2.1, mouse by the prefix m in mKvβ2.1; also called mKvβ2.1 in pECFP-N1; source: HEK-293, transfected; in lysate (co-IP) and in cells or membrane sheets (FRET)
For B2, in the series with Kvβ1.1YFP, the “FRET efficiency (E)” value came to 30.4% and the “stoichiometry N” value came to 1.99.

B3: Kvβ2.1YFP (natural protein, mouse (from the prefix m in mKvβ2.1), UniProt P62482 1-367, looked up)
chain: MYPESTTGSPARLSLRQTGSPGMIYSTRYGSPKRQLQFYRNLGKSGLRVSCLGLGTWVTFGGQITDEMAEHLMTLAYDNGINLFDTAEVYAAGKAEVVLGNIIKKKGWRRSSLVITTKIFWGGKAETERGLSRKHIIEGLKASLERLQLEYVDVVFANRPDPNTPMEETVRAMTHVINQGMAMYWGTSRWSSMEIMEAYSVARQFNLIPPICEQAEYHMFQREKVEVQLPELFHKIGVGAMTWSPLACGIVSGKYDSGIPPYSRASLKGYQWLKDKILSEEGRRQQAKLKELQAIAERLGCTLPQLAIAWCLRNEGVSSVLLGASNAEQLMENIGAIQVLPKLSSSIVHEIDSILGNKPYSKKDYRS
notes: voltage-gated potassium channel regulatory subunit Kvβ2.1, mouse by the prefix m in mKvβ2.1; also called mKvβ2.1 in pEYFP-N1; Kvb2.1 YFP; source: HEK-293, transfected; in cells or membrane sheets (FRET) and in lysate (semidenaturing gel)
B3: in the series with Kvβ1.1CFP, the “FRET efficiency (E)” value amounted to 32.5% and the “stoichiometry N” value worked out at 1.88.

B4: Kv1.3YFP (natural protein, UniProt P15384 1-525, looked up)
chain: MTVVPGDHLLEPEAAGGGGGDPPQGGCVSGGGCDRYEPLPPALPAAGEQDCCGERVVINISGLRFETQLKTLCQFPETLLGDPKRRMRYFDPLRNEYFFDRNRPSFDAILYYYQSGGRIRRPVNVPIDIFSEEIRFYQLGEEAMEKFREDEGFLREEERPLPRRDFQRQVWLLFEYPESSGPARGIAIVSVLVILISIVIFCLETLPEFRDEKDYPASPSQDVFEAANNSTSGASSGASSFSDPFFVVETLCIIWFSFELLVRFFACPSKATFSRNIMNLIDIVAIIPYFITLGTELAERQGNGQQAMSLAILRVIRLVRVFRIFKLSRHSKGLQILGQTLKASMRELGLLIFFLFIGVILFSSAVYFAEADDPSSGFNSIPDAFWWAVVTMTTVGYGDMHPVTIGGKIVGSLCAIAGVLTIALPVPVIVSNFNYFYHRETEGEEQAQYMHVGSCQHLSSSAEELRKARSNSTLSKSEYMVIEEGGMNHSAFPQTPFKTGNSTATCTTNNNPNSCVNIKKIFTDV
notes: voltage-gated potassium channel Kv1.3 (α subunit); Used as the tetrameric positive control; source: HEK-293, transfected; in cells (FRET) and in lysate (semidenaturing gel)
With B4, the “stoichiometry N” value in series [3] is 2 and 4.
On to B5, for which the “stoichiometry N” value in series [3] was 2 and 4. Moreover, in the series with Kvβ1.1CFP, the “FRET efficiency (E)” value was determined as 30.2% and the “stoichiometry N” value was determined as 1.93.
